What was measured:
[1] = molecular target: T1, hOgg1 N149C (8-oxoguanine DNA glycosylase) (Homo sapiens, UniProt O15527 12-327, N149C); assay: X-ray crystallography; disulfide cross-linked complex, dark (G*Odark), 2.81 A; Complex formation: 20 mM Tris-HCl, 100 mM NaCl, 1 mM EDTA pH 7.4, on ice overnight (12 nmol DNA, 24 nmol protein in 1.2 ml); purified by anion exchange and SEC; crystallized at 13 mg/ml; settings: protein: recombinant; tags: His-tag (pET28a, NdeI/XhoI); 5' overhang 1 nt on each strand
T1 sequence (O15527 12-327 N149C): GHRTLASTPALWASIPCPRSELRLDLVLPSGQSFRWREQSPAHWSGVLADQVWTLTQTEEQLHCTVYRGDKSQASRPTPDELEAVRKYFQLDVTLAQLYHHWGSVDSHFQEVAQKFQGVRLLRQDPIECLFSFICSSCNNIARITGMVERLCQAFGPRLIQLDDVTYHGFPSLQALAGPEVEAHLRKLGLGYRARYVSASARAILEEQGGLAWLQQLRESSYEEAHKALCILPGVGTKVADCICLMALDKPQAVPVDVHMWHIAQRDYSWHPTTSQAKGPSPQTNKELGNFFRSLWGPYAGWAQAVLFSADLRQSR

[2] = molecular target: T1, hOgg1 N149C (8-oxoguanine DNA …); assay: X-ray crystallography; disulfide cross-linked complex, illuminated 365 nm (95 J) and cryotrapped (G*Olight), oG in active site at 68% occupancy, Ca2+ present, 2.48 A; Complex formation: 20 mM Tris-HCl, 100 mM NaCl, 1 mM EDTA pH 7.4, on ice overnight (12 nmol DNA, 24 nmol protein in 1.2 ml); purified by anion exchange and SEC; crystallized at 13 mg/ml; settings: protein: recombinant; tags: His-tag (pET28a, NdeI/XhoI); 5' overhang 1 nt on each strand

Row | Binder | binding result [1] | binding result [2]
1 | oG*/C‡ duplex (Table S1 entries 3 and 5) (dsDNA, strand 1 G9 = photocaged 8-oxoguanine (oG*); strand 2 C9 = N4-modified cytosine (C‡) for disulfide cross-linking) DNA 1: AGCGTCCAGGTCTACC DNA 2: TGGTAGACCTGGACGC | binds | 
2 | oG/C‡ duplex, uncaged in crystallo by 365 nm light (dsDNA, strand 1 G9 = 8-oxoguanine (oG) after photodeprotection; strand 2 C9 = N4-modified cytosine (C‡), disulfide to Cys149) DNA 1: AGCGTCCAGGTCTACC DNA 2: TGGTAGACCTGGACGC |  | binds
